From IntAct's records for PubMed 22705208

B1: Fibroblast growth factor 12 (Homo sapiens), P61328-2 (parent)
chain: MESKEPQLKGIVTRLFSQQGYFLQMHPDGTIDGTKDENSDYTLFNLIPVGLRVVAIQGVKASLYVAMNGEGYLYSSDVFTPECKFKESVFENYYVIYSSTLYRQQESGRAWFLGLNKEGQIMKGNRVKKTKPSSHFVPKPIEVCMYREPSLHEIGEKQGRSRKSSGTPTMNGGKVVNQDST

Variants of: B1
Settings: with scn5a_human SCN5A

Variant | effect of a mutation on the interaction
K9E | disrupting interaction strength

Variants of: B1
Settings: with scn5a_human SCN5A
Remark: another data set of the same source

Variant | effect of a mutation on the interaction
K9E | decreasing interaction strength
